Reference: the supplement of paper PMC10567573

B1: CRYL1 (parent)
chain: RNALENIRKEMKLLEQAGSLKGSL

Variants of: B1
Assay: protein stability index of a GFP-peptide fusion (GPS, HEK-293T) (PSI 1-6); higher = more stable
Details: c terminus: a fixed tail appended
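Further: lentivirally expressed fusions sorted by FACS into six bins by GFP to DsRed ratio, PSI derived from sequencing read proportions per bin multiplied by bin number.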

Protein stability index: each site, then its substitutions
R1: A 2.86, C 2.87, D 3.7, E 3.65, F 2.46, G 3.82, H 3.47, I 2.69, K 3.77, L 3.21, M 3.11, N 3.83, P 3.37, Q 3.65, S 3.48, T 3.87, V 3.53, W 3.34, Y 3.04
N2: A 3.1, C 2.72, D 3.52, E 3.65, F 2.87, G 3.57, H 3.49, I 2.69, K 2.83, L 2.88, M 3.05, P 4.16, Q 3.39, R 3.49, S 2.85, T 2.92, W 2.34, Y 2.48
A3: C 2.45, D 3.75, E 2.94, F 2.6, G 3.34, I 2.31, K 3.48, L 2.64, M 3.75, N 3.75, P 4.1, Q 3.9, R 3.98, S 4.31, T 4.32, V 2.83, W 2.57, Y 2.56
L4: A 3.93, C 4.05, D 5, E 4.65, F 2.92, G 3.14, H 4.15, I 3.21, K 3.67, M 3.37, N 4.39, Q 4.75, S 4.36, T 4.37, V 3.65, W 3.16
E5: A 2.68, C 2.98, D 3.85, F 2.5, G 3.21, H 2.88, I 3.57, K 2.7, L 2.55, M 3, N 2.46, P 3.7, Q 3.34, R 3.06, S 2.78, V 2.82, W 2.69, Y 1.97
N6: A 3.66, C 2.33, D 3.76, E 3.2, F 1.68, G 3.79, H 3.38, I 2.45, K 3.06, L 2.17, M 2.98, P 3.4, Q 3.03, S 3.72, T 2.53, V 3.03, W 2.23, Y 2.53
I7: A 4.35, C 2.3, D 4.75, E 4.02, F 2.37, H 3.74, K 5.08, L 2.48, M 3.29, N 4.37, P 4.22, S 3.69, T 3.9, V 3.53, W 3.15, Y 3.67
R8: A 3.72, C 2.84, D 4.49, E 2.58, F 2.07, G 3.77, H 4.05, I 1.84, K 3.04, L 1.65, M 2.92, N 4.19, P 4.29, Q 3.92, S 3.87, T 4.19, V 3.25, W 2.3, Y 2.45
K9: C 2.29, D 3.57, E 3.83, F 1.95, G 3.61, H 2.9, I 1.48, L 1.94, M 2.32, N 3.12, P 3.58, Q 3.29, R 3.31, S 3.61, T 3.43, V 3.78, W 1.8, Y 2.78
E10: A 2.36, C 1.83, D 3.33, F 1.61, G 2.87, H 2.68, I 1.92, K 2.31, L 2.44, M 1.23, N 2.89, P 3.06, Q 2.59, R 1.87, S 2.33, T 2.39, V 2.63, W 2.89, Y 1.08
M11: A 3.4, C 3.37, D 4.34, E 4.45, F 3.13, G 4, H 4.45, I 3.24, K 2.79, L 3.1, P 4.49, Q 3.93, R 4.01, S 4.92, T 4.37, V 3.23, W 2.21, Y 2.92
K12: A 3.46, C 3.43, D 4.23, E 3.38, F 2.39, H 3.46, I 3.46, L 3.55, M 2.89, N 3.36, P 4.57, Q 3.31, R 3.06, S 3.53, T 3.54, W 1.72, Y 3.75
L13: A 3.89, D 4.12, E 3.94, F 2.85, G 4.1, H 4.32, I 3.77, K 3.87, N 3.53, P 4.52, Q 4.5, R 3.66, S 4.04, T 3.04, Y 2.98
L14: A 3.77, C 3.39, D 4.36, E 4.88, F 3.19, I 3.47, K 4.03, M 2.68, N 4.11, P 3.93, Q 4.18, R 3.93, S 3.77, T 3.79, V 3.85, W 3.17, Y 3.86
E15: A 2.17, C 3.2, D 3.63, F 2.9, G 3.05, H 2.77, I 1.71, K 2.48, L 2.16, M 2.87, N 3.16, P 3.37, Q 3.57, R 3.63, S 2.58, T 3.08, V 2.39, W 1.49, Y 2.21
Q16: A 2.93, C 3.35, D 4.1, E 3.75, F 2.71, G 3.7, H 3.25, I 2.76, K 3.02, L 2.06, M 2.76, N 3.75, P 3.3, R 2.86, S 2.62, T 3.01, V 2.89, W 2.11, Y 2.37
A17: C 2.48, D 3.97, E 3.84, F 2.22, G 3.4, H 3.06, I 2.71, K 3.51, L 3.18, M 3.32, N 3.62, P 3.5, Q 4.01, R 3.38, S 3.72, T 3.4, V 3.58, W 2.33, Y 2.32
G18: A 4, D 3.64, E 3.58, F 2.13, H 3.08, I 1.98, K 3.52, L 1.83, M 2.12, N 3.84, P 4.33, Q 3.48, R 3.23, S 3.41, T 3.39, V 2.8, W 2.37, Y 2.12
S19: A 2.51, D 3.71, E 4.14, F 1.9, G 3.12, H 3.04, I 2.62, K 3.42, L 2.36, M 2.56, N 3.66, P 3.54, Q 2.85
